What was measured:
Assay in all cases: EMSA
[1] = system: VP16-6ZfFLO11/F2-F1 (engineered); conditions: Buffer, salt, pH and temperature not given (methods cited); phage ELISA with 0.125-32 nM DNA; EMSA with 5-fold dilution series of TNT-expressed protein
[2] = system: VP64-6ZfFLO11/F2-F1 (engineered); conditions: Buffer, salt, pH and temperature not given (methods cited); phage ELISA with 0.125-32 nM DNA; EMSA with 5-fold dilution series of TNT-expressed protein
[3] = system: Zif268 3F peptide; conditions: calibration reference; value from ref 51; Buffer, salt, pH and temperature not given (methods cited); phage ELISA with 0.125-32 nM DNA; EMSA with 5-fold dilution series of TNT-expressed protein; cited from earlier work

| Substance | binding signal (fold stronger than 3F rTFs) [1] | binding signal (fold stronger than 3F rTFs) [2] | Kd [3] [nM] |
| --- | --- | --- | --- |
| TFLO11/F2-F1 (also called F1-F2) 31-bp oligo | 10 | 10 |  |
| Zif268 cognate 9-bp site |  |  | 2 |

Reference: PMC1939876
